We go through 2 molecules from paper PMC2887293 (Protein expression and purification, 2010).

For test [1], the target named is … peptide. The following applies: cited from earlier work.
Test [2] concerns the target human N-His6-mortalin (Δ1-51) (human, UniProt P38646 52-679). Briefly: fluorescence polarisation. In general terms: In fluorescence polarisation assays a small probe gives low polarisation when free and higher when bound to something large.

Where no end group is shown, it is not given here. fluorescein = fluorescein label attached at the C-terminus

Chain of Ssq1 (Q05931 2-657): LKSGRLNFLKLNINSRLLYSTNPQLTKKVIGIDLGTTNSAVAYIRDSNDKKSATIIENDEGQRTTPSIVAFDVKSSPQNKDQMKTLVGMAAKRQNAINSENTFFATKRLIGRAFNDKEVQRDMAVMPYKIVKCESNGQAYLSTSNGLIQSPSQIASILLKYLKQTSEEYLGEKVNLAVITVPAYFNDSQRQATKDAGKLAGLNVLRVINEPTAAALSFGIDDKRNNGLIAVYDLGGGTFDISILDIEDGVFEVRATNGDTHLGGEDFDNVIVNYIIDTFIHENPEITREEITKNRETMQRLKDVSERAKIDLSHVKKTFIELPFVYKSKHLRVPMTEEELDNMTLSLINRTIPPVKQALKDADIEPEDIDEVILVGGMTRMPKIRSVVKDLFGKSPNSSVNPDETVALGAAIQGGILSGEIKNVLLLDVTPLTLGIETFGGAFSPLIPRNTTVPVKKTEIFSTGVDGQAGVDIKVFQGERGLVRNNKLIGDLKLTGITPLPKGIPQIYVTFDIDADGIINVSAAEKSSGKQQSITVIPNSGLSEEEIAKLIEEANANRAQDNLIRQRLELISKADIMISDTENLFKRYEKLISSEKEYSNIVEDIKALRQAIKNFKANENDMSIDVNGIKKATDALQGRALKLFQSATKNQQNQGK
Chain of human N-His6-mortalin (Δ1-51) (P38646 52-679, stated change not applied): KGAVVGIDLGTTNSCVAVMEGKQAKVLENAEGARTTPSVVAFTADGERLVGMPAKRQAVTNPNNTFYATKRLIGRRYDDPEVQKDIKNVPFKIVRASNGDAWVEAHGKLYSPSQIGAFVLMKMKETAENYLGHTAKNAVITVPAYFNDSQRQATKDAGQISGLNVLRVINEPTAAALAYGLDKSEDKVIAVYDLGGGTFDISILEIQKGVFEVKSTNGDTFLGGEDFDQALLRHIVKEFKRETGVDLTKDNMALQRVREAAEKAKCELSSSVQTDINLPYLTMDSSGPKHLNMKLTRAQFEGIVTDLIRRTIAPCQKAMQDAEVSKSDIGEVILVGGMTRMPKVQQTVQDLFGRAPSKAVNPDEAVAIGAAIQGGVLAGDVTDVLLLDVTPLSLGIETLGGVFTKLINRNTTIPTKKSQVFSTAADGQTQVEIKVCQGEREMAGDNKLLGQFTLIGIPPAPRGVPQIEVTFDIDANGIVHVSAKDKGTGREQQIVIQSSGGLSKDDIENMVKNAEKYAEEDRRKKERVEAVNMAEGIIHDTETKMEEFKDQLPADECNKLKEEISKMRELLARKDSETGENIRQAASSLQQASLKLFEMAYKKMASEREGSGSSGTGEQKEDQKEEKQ

With Ssq1 (from UniProt Q05931), the Kd in test [1] is 2.8 µM.

In turn, LSLPPVKLHK-fluorescein [LSLPPVKLHK-fluorescein] returned a Kd in test [2] of 1.2 ± 0.1 µM.

One may read the Kd as the constant that tells how readily two partners part at equilibrium.
